# B1: anti-c-Met/anti-Ang2 bispecific antibody MA01 (bispecific antibody, human IgG2, kappa)
# heavy: EVQLVESGGGLVQPGGSLRLSCAASGFTFTDYYMSWVRQAPGKGLEWLGFIRNKANGYTTEYSASVKGRFTISRDNSKNTLYLQMNSLRAEDTAVYYCARDNWFAYWGQGTLVTVSSASTKGPSVFPLAPCSRSTSESTAALGCLVKDYFPEPVTVSWNSGALTSGVHTFPAVLQSSGLYSLSSVVTVPSSNFGTQTYTCNVDHKPSNTKVDKTVERKCCVECPPCPAPPVAGPSVFLFPPKPKDTLMISRTPEVTCVVVDVSHEDPEVQFNWYVDGVEVHNAKTKPREEQFNSTFRVVSVLTVVHQDWLNGKEYKCKVSNKGLPAPIEKTISKTKGQPREPQVYTLPPSREEMTKNQVSLTCLVKGFYPSDIAVEWESNGQPENNYKTTPPMLDSDGSFFLYSKLTVDKSRWQQGNVFSCSVMHEALHNHYTQKSLSLSPGKGGGGSGGGGSQVQLQESGPGLVKPSETLSLTCAVSGYSITSDYAWNWIRQPPGKGLEWMGKISYSGKTDYNPSLKSRSTISRDTSKNQFSLKLSSVTAADTAVYYCARGNFEGAMDYWGQGTLVTVSSGGGGSGGGGSGGGGSDIQMTQSPSSLSASVGDRVTITCKASQSVSNDVAWYQQKPGKAPKLLIYYASNRYPGVPSRFSGSGSGTDFTLTISSLQPEDFATYYCQQDYSSPWTFGGGTKLEIK
# light: DIQMTQSPSSLSASVGDRVTITCKSSQSLLASGNQNNYLAWYQQKPGKAPKMLIIWASTRVSGVPSRFSGSGSGTDFTLTISSLQPEDFATYYCQQSYSRPYTFGQGTKVEIKRTVAAPSVFIFPPSDEQLKSGTASVVCLLNNFYPREAKVQWKVDNALQSGNSQESVTEQDSKDSTYSLSSTLTLSKADYEKHKVYACEVTHQGLSSPVTKSFNRGEC
# Tests used:
# [1] = target: T1, c-Met-Fc (#358-MT/CF, R&D Systems) (human, UniProt P08581 25-932); test: SPR, Biacore T100; bispecific antibody captured by human Fab binder on CM5, c-Met-Fc as analyte
# T1 construct: also called human c-Met/Fc fusion protein (R&D Systems); human c-Met/Fc protein; not shown: Fc part
# Experimental: The binding affinity of the anti-c-Met/anti-Ang2 bispecific antibody prepared in Example 1 to c-Met was measured using Biacore T100(GE). For this, a human Fab binder (#28-9583-25, GE Healthcare) was fixed on the surface of CM5 chip (#BR-1005-30, GE) according to manufacturer's manual. About 90˜120 RU of the anti-c-Met/anti-Ang2 bispecific antibody was captured and then, c-Met-Fc (#358-MT/CF, R&D Systems) was added to the captured antibody at various concentrations. Hereto, 10 mM Glycine-HCl (pH 1.5) solution was added, to regenerate the surface. To measure the affinity, the above obtained data were fitted using BIAevaluation software (GE Healthcare, Biacore T100 evaluation software).
# [2] = target: T2, recombinant hAng-2 (C-His, R&D Systems) (human, UniProt O15123 19-496); test: SPR, Biacore T100; C-terminal His-tagged human Ang2 captured by anti-histidine antibody on CM5, MA01 as analyte
# T2 construct: Bought protein; also called human Ang-2 protein; C-terminal histidine-tagged human Ang2 (R&D Systems); not shown: C-terminal His tag
# T2 sequence: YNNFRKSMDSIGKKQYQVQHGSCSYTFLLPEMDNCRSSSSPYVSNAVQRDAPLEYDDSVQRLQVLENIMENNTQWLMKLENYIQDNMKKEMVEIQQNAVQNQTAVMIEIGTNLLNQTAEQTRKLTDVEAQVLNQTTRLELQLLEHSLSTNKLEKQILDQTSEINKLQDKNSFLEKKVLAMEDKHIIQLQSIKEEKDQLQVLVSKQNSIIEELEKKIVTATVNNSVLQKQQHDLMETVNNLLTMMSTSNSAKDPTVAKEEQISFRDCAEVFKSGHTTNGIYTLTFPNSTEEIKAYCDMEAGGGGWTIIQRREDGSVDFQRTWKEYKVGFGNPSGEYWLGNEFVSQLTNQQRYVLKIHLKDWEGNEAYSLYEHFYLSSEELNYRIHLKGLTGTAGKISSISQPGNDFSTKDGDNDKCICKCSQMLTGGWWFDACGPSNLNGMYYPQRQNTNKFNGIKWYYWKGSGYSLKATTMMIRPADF
# Experimental: The binding affinity of the anti-c-Met/anti-Ang2 bispecific antibody prepared in Example 1 to Ang2 was measured using Biacore T100(GE). For this, an anti-histidine antibody (R&D Systems) was fixed on the surface of CM5 chip (#BR-1005-30, GE) according to manufacturer's manual. C-terminal histidine-tagged human Ang2 (R&D Systems) was captured and then, anti-c-Met/anti-Ang2 bispecific antibody MA01 was added to the captured antigen (Ang2) at various concentrations. Hereto, 10 mM Glycine-HCl (pH 1.5) solution was added, to regenerate the surface. To measure the affinity, the above obtained data were fitted using BIAevaluation software (GE Healthcare, Biacore T100 evaluation software).
# T1 sequence (P08581 25-932 limits assumed): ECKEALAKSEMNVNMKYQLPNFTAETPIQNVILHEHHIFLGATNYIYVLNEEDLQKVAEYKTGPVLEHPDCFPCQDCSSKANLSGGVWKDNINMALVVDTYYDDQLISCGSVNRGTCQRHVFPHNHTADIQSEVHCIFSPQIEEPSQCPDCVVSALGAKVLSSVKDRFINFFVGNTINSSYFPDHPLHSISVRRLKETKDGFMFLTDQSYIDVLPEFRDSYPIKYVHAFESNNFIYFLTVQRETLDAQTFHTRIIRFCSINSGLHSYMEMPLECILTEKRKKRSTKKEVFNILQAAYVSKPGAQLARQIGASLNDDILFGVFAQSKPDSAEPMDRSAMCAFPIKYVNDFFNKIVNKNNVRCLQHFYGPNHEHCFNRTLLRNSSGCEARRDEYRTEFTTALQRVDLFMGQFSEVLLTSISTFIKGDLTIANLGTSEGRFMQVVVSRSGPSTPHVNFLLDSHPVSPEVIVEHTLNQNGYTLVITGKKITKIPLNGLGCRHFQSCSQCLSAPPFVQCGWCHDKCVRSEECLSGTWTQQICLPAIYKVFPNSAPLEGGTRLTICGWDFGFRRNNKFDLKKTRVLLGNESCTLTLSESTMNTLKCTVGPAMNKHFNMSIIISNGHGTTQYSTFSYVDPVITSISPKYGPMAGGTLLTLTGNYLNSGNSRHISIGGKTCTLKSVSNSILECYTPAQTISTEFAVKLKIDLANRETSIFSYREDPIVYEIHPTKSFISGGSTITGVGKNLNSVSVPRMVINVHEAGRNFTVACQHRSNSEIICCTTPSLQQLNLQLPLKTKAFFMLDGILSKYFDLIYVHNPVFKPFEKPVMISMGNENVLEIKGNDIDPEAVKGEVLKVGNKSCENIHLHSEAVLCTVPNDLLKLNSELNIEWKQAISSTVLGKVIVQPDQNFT
binder,measurement,setting,value
B1,Kd,[1],0.07 nM
same,Kd,[2],71.6 nM
same,koff,[2],0.00648 s⁻¹
same,kon,[2],90500 M⁻¹ s⁻¹
